{"source": "patent US20130017188A1", "about": "“MODULATION OF SGK1 EXPRESSION IN TH17 CELLS TO MODULATE TH17-MEDIATED IMMUNE RESPONSES” (THE BRIGHAM AND WOMEN'S HOSPITAL, INC., priority 2009, published 2013)", "key": {"[1]": {"tested_on": "SGK1 expression in naïve CD4+ T cells", "experiment": "SGK1 mRNA expression during T cell / TH17 differentiation", "assay_type": "cell-based", "experimental": "Naïve CD4+ T cells were cultured in TH17 differentiating condition (TGF-β plus IL-6) for 96 hours.\nThe correlation between the SGK1 expression level during T cell differentiation was previously unknown, so SGK1 mRNA level was first measured under different conditions during T cell differentiation (FIG. 1). […] IL-23, an IL-12 family cytokine, is essential for enhancing generation of TH17 cells.\nThe time dependent expression of SGK1 during TH17 differentiation was further examined by culturing naïve CD4+ T cells under TH17 differentiating conditions (TGF-β plus IL-6) for 96 hours. After 48 hours, TH17 cells were supplemented with IL-23 until the end of the culture period."}, "TH17 cells": {"tested_on": "TH17 cells", "experiment": "IL-23 dependent expansion of differentiated TH17 cells, intracellular cytokine staining for IL-17", "assay_type": "cell-based, mice", "experimental": "Naïve CD4+ T cells were sorted from wild-type and SGK1-deficient mice and cultured under TH17 differentiation conditions. After a first round of stimulation, the cells were rested for two days in cytokine free medium. Two days later, cells were activated in the presence or absence of IL-23, and intracellular cytokine staining was performed for IL-17.\n(§1) It has been shown that exposure of IL-23 is essential for expanding and stabilizing TH17 cells. […] It was next tested whether SGK1 is essential for IL-23-dependent expansion of TH17 cells. Naïve CD4+ T cells were sorted from wild-type and SGK1-deficient mice and were cultured under TH17 differentiation conditions, as described herein. After a first round of stimulation, cells were rested for two days in a cytokine-free medium. Two days later, cells were activated in the presence or absence of IL-23, and intracellular cytokine staining was performed for IL-17 expression. […] It was further tested whether IL-23 can expand sorted memory TH17 cells. Both wild-type and SGK1-deficient CD4^+CD62L^− cells were sorted and cultured with either anti-CD3 alone or anti-CD3 plus IL-23."}, "[2]": {"tested_on": "CD4+CD62L- cells (memory CD4 cells)", "experiment": "IL-17A and IL-17F expression in sorted memory CD4+CD62L- cells", "assay_type": "cell-based, mice", "conditions": "anti-CD3 plus IL-23 vs anti-CD3 alone (FIG. 5)", "experimental": "Wild-type and SGK1-deficient CD4+CD62L-cells (memory CD4 cells) were sorted and cultured with either anti-CD3 alone or anti-CD3 plus IL-23.\nas §1"}}, "data": [{"molecule": "IL-6: STAT3-activating cytokine used with TGF-β for TH17 differentiation", "values": [{"measurement": "expression of SGK1 (mRNA)", "setting": "[1]; IL-6 added together with TGF-β (FIG. 1)", "value": "further increased the expression SGK1"}]}, {"molecule": "TGF-β", "values": [{"measurement": "expression level of SGK1 (mRNA)", "setting": "[1]; T cell differentiation, TGF-β (FIG. 1)", "value": "upregulate the expression level of SGK1"}]}, {"molecule": "IL-23: an IL-12 family cytokine, essential for enhancing generation of TH17 cells (protein, UniProt Q9NPF7 20-189; P29460 23-328, looked up) Interleukin-23 subunit alpha: RAVPGGSSPAWTQCQQLSQKLCTLAWSAHPLVGHMDLREEGDEETTNDVPHIQCGDGCDPQGLRDNSQFCLQRIHQGLIFYEKLLGSDIFTGEPSLLPDSPVGQLHASLLGLSQLLQPEGHHWETQQIPSLSPSQPWQRLLLRFKILRSLQAFVAVAARVFAHGAATLSP Interleukin-12 subunit beta: IWELKKDVYVVELDWYPDAPGEMVVLTCDTPEEDGITWTLDQSSEVLGSGKTLTIQVKEFGDAGQYTCHKGGEVLSHSLLLLHKKEDGIWSTDILKDQKEPKNKTFLRCEAKNYSGRFTCWWLTTISTDLTFSVKSSRGSSDPQGVTCGAATLSAERVRGDNKEYEYSVECQEDSACPAAEESLPIEVMVDAVHKLKYENYTSSFFIRDIIKPDPPKNLQLKPLKNSRQVEVSWEYPDTWSTPHSYFSLTFCVQVQGKSKREKKDRVFTDKTSATVICRKNASISVRAQDRYYSSSWSEWASVPCS", "values": [{"measurement": "IL-17 expressing TH17 cells after re-activation with IL-23", "setting": "TH17 cells; SGK1-deficient TH17 cells, ~4% in absence of IL-23", "value": "~1", "unit": "%"}, {"measurement": "IL-17 expressing TH17 cells after re-activation with IL-23", "setting": "TH17 cells; wild-type TH17 cells, 11.5% in absence of IL-23", "value": 13, "unit": "%"}, {"measurement": "expression of IL-17A and IL-17F", "setting": "[2]; SGK1-deficient memory cells", "value": "defective in inducing expression of IL-17A and IL-17F"}, {"measurement": "expression of IL-17A and IL-17F", "setting": "[2]; wild-type memory cells", "value": "clearly enhanced the expression of IL-17A and IL-17F"}, {"measurement": "expression of SGK1 (mRNA)", "setting": "[1]; IL-23, further to TGF-β and IL-6 (FIG. 1)", "value": "further enhances the expression of SGK1"}, {"measurement": "time dependent expression of SGK1", "setting": "[1]; TH17 cells supplemented with IL-23 after 48 hours (FIG. 2)", "value": "further induced SGK1 expression"}]}]}
